Source: patent publication US20110045007A1 (Genmab, published 2011)

Biological target: T1, human C1q (human, UniProt P02745 23-245; P02746 28-253; P02747 29-245)
T1 construct: Bought protein; also called first component of the classical complement cascade
Experiment: ELISA, antibody coated, C1q detected with rabbit anti-human C1q
Method: In short, microtiter ELISA plates (Greiner, Germany) were coated overnight at RT with the test antibodies serially diluted from 10 μg/ml to 0.06 μg/ml in PBS. Plates were emptied and wells were blocked with 200 μl ELISA-diluent per well (0.1 M NaPO₄, 0.1 M NaCl, 0.1% gelatin and 0.05% Tween-20), at RT for 30 minutes. […] After washing the plates (3×) with PBST, wells were incubated with HRP-conjugated swine anti-rabbit IgG-Fc (DAKO, P0300, lot #069) diluted in ELISA diluent (1:2500, 100 μl/well, RT, 1 hour). Thereafter, plates were washed thrice and assays were developed with freshly prepared 1 mg/ml ABTS solution (ABTS: 2,2′-azino-bis[3-ethylbenzthiazoline-6-sulfonic acid]); 2 tablets of 5 mg in 10 ml ABTS buffer, Boehringer Mannheim, Ingelheim, Germany) at RT in the dark for 30 minutes.

T1 sequence (P02745 23-245 limits assumed, chain 1 of 3): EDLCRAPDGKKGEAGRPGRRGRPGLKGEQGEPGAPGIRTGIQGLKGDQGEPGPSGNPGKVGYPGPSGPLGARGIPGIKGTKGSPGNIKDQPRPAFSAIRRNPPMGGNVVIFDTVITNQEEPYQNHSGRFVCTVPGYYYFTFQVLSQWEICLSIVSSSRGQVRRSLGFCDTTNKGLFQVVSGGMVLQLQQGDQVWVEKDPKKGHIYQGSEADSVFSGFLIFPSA
T1 sequence (P02746 28-253 limits assumed, chain 2 of 3): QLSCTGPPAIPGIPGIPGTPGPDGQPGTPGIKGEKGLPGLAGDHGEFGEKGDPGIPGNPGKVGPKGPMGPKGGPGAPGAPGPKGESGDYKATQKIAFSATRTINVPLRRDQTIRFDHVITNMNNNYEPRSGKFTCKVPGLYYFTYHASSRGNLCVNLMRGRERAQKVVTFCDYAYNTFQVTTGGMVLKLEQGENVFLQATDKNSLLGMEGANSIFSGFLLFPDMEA
T1 sequence (P02747 29-245 limits assumed, chain 3 of 3): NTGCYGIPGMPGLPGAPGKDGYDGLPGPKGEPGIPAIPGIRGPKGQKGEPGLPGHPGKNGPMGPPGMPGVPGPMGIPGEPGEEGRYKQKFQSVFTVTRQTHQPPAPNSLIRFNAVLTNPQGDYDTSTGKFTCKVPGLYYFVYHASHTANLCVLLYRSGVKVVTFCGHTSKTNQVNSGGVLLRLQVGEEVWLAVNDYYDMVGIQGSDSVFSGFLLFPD

B1: 7D8-HG (antibody)
heavy: EVQLVESGGGLVQPDRSLRLSCAASGFTFHDYAMHWVRQAPGKGLEWVSTISWNSGTIGYADSVKGRFTISRDNAKNSLYLQMNSLRAEDTALYYCAKDIQYGNYYYGMDVWGQGTTVTVSSASTKGPSVFPLAPCSRSTSESTAALGCLVKDYFPEPVTVSWNSGALTSGVHTFPAVLQSSGLYSLSSVVTVPSSSLGTKTYTCNVDHKPSNTKVDKRVAPEFLGGPSVFLFPPKPKDTLMISRTPEVTCVVVDVSQEDPEVQFNWYVDGVEVHNAKTKPREEQFNSTYRVVSVLTVLHQDWLNGKEYKCKVSNKGLPSSIEKTISKAKGQPREPQVYTLPPSQEEMTKNQVSLTCLVKGFYPSDIAVEWESNGQPENNYKTTPPVLDSDGSFFLYSRLTVDKSRWQEGNVFSCSVMHEALHNHYTQKSLSLSLGK
light: not shown
notes: Half-molecule of one heavy and one light chain; also called hingeless IgG4 anti-CD20; IgG4 HG
**Q.** Does B1 bind?
**A.** no binding
